Source: patent US20020177177A1 (PROLIFIX, published 2002)

Target: T1, E. coli-produced 6X histidine-tagged cyclin D1 (UniProt P24385 1-295, limits assumed)
T1 construct: also called His-cyclin D1; His-D1; not shown: 6X histidine tag
Assay: GST pull-down on glutathione-agarose, anti-cyclin D1 Western blot
Description: To ask which domain or motif of SRC-1 is involved in cyclin D1 binding, we generated a series a GST-SRC1 deletion mutants. […] In the in vitro binding assay, the series of GST-containing proteins were incubated with bacterially expressed His-tagged cyclin D1 and immobilized on glutathione-agarose. Cyclin D1 binding was detected by Western blot analysis using anti-cyclin D1 antibody. Binding was not detected to GST alone.

T1 sequence (P24385 whole entry): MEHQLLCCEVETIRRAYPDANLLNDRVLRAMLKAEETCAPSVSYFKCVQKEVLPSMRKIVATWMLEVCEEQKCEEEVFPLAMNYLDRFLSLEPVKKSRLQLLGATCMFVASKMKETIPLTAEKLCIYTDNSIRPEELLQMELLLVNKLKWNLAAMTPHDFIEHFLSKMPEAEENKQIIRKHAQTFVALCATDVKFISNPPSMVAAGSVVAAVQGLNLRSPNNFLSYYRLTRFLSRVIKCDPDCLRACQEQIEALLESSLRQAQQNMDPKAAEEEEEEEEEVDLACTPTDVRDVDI

binding result: no binding
B1: GST-SRC1 361-568 (other, human, UniProt Q15788 361-568, looked up)
chain: IHIIDREHSGLSPQDDTNSGMSIPRVNPSVNPSISPAHGVARSSTLPPSNSNMVSTRINRQQSSDLHSSSHSNSSNSQGSFGCSPGSQIVANVALNQGQASSQSSNPSLNLNNSPMEGTGISLAQFMSPRRQVTSGLATRPRMPNNSFPPNISTLSSPVGMTSSACNNNNRSYSNIPVTSLQGMNEGPNNSVGFSASSPVLRQMSSQN
notes: not shown: glutathione-S-transferase (GST) fusion partner
